Results taken from patent US20140105889A1 (published 2014).

T1: FcγRIIb (human, UniProt P31994 43-217, limits assumed)
T1 construct: also called FcγIIB; FcgRIIb
T1 sequence: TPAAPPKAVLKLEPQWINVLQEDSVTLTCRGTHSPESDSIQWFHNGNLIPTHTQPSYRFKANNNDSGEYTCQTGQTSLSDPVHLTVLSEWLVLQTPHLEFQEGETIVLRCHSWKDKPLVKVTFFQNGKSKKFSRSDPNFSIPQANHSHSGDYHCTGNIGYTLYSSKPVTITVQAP

T2: FcγRIIa type H (human, UniProt P12318 36-217)
T2 construct: also called FcγRIIaH; FcγRIIa(H)
T2 sequence: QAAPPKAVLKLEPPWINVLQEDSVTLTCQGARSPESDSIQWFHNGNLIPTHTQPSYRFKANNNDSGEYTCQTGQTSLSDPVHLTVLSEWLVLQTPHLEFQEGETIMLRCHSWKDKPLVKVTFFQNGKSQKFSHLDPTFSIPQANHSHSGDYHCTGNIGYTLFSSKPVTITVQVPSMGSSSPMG

T3: FcγRIIb (human, UniProt P31994 43-217, limits assumed)
T3 construct: Soluble analyte in Biacore; also called FcgRIIb; FcγIIB
T3 sequence: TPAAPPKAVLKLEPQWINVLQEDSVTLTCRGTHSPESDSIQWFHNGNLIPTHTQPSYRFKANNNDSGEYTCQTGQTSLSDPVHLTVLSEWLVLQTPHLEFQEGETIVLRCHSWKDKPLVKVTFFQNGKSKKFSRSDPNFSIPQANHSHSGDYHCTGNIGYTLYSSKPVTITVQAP


Assays:
human FcRn = target: T4, human FcRn (human); assay: SPR (Biacore), pH 7.0, 25 C, antibody captured by Protein L, human FcRn as analyte
T4 construct: also called hFcRn; soluble human FcRn complexed with β2-microglobulin
Description: A kinetic analysis of binding between human FcRn and the aforementioned antibodies was carried out using the Biacore T100 or T200 (GE Healthcare). The antibodies being tested were captured on the CM4 Sensor Chip (GE Healthcare) on which a suitable amount of Protein L (ACTIGEN) was suitably immobilized by amine coupling. Next, diluted human FcRn and a running buffer used as a blank were injected to allow the human FcRn to interact with the antibody captured on the sensor chip. A buffer consisting of 50 mmol/L sodium phosphate, 150 mmol/L NaCl and 0.05% (w/v) Tween 20 (pH 7.0 or pH 7.4) was used for the running buffer, and each buffer was also used to dilute the human FcRn. 10 mmol/L glycine-HCl (pH 1.5) was used to regenerate the sensor chip. All measurements of binding were carried out at 25° C. The KD(M) of each antibody to human FcRn was calculated based on kinetics parameters, i.e., the association rate constant ka (1/Ms) and the dissociation rate constant kd (1/s) calculated from a sensorgram obtained by the measurement. The Biacore T100 or T200 Evaluation Software (GE Healthcare) was used to calculate each parameter.

FcγRIIb [1] = target: T1, FcγRIIb; assay: ratio of SPR KD values of this variant (FcγRIIaR over FcγRIIb)
Excerpt: (§1) Furthermore, KD(IIaR)/KD(IIb) and KD(IIaH)/KD(IIb) in the table respectively represent the value obtained by dividing the KD value of each variant for FcγRIIaR by the KD value of each variant for FcγRIIb, and the value obtained by dividing the KD value of each variant for FcγRIIaH by the KD value of each variant for FcγRIIb.

FcγRIIa type H = target: T2, FcγRIIa type H; assay: SPR (Biacore), captured antibody, FcγR as analyte, method of Example 14
FcγRIIIa type V = target: T5, FcγRIIIa type V (human, UniProt P08637 17-208, limits assumed); assay: as above
T5 construct: also called FcγRIIIaV; FcγRIIIa(V)
T5 sequence (P08637 other isoform, or with tags, fused parts or gaps limits assumed): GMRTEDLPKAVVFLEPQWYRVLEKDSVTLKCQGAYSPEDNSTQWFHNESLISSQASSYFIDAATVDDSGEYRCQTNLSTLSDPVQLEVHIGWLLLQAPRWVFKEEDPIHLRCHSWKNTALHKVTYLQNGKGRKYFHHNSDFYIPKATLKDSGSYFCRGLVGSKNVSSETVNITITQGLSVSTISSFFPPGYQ

FcγRIIb [2] = target: T1, FcγRIIb; assay: ratio of SPR KD values of this variant (FcγRIIaH over FcγRIIb)
Excerpt: as §1

FcγRIIb [3] = target: T3, FcγRIIb; assay: SPR (Biacore), antibody captured on chip, FcγR as analyte, method of Example 14
Description: Next, interaction between these antibodies and FcγR was analyzed kinetically using the Biacore T100 (GE Healthcare). The interaction was measured at a temperature of 25° C. using HBS-EP+ (GE Healthcare) for the running buffer. The Series S Sensor Chip CM5 (GE Healthcare) was used after immobilizing Protein A by amine coupling. […] Antibody captured on the chip was washed by allowing 10 mM glycine-HCl (pH 1.5) to react following measurement. The chip regenerated in this manner was used repeatedly. The dissociation constant KD (mol/L) was calculated from the association rate constant ka (L/mol/s) and dissociation rate constant kd (1/s) as calculated by global-fitting the measurement results with a 1:1 Langmuir binding model using the Biacore

Kd (human FcRn)	Kd (FcγRIIIa type V)	Binder	other results
64.2 nM	–	F1254 (antibody, name in EU numbering, copies: 2 + 2) heavy: QVQLQESGPGLVKPSETLSLTCAVSGHSISHDHAWSWVRQPPGEGLEWIGFISYSGITNYNPSLQGRVTISRDNSKNTLYLQMNSLRAEDTAVYYCARSLARTTAMDYWGEGTLVTVSSASTKGPSVFPLAPSSKSTSGGTAALGCLVKDYFPEPVTVSWNSGALTSGVHTFPAVLQSSGLYSLSSVVTVPSSSLGTQTYICNVNHKPSNTKVDKKVEPKSCDKTHTCPPCPAPELRGGPKVFLFPPKPKDTLYISRTPEVTCVVVDVSHEDPEVKFNWYVDGVEVHNAKTKPREEQYNSTYRVVSVLQVLHQDWLNGKEYKCKVSNKALPAPIEKTISKAKGQPREPQVYTLPPSRDELTKNQVSLTCLVKGFYPSDIAVEWESNGQPENNYKTTPPVLDSDGSFFLYSKLTVDKSRWQQGNVFSCSVMHEALHYHVTRKELSLSP light: not shown	–
171 nM	–	F1272 (antibody, name in EU numbering, copies: 2 + 2) heavy: QVQLQESGPGLVKPSETLSLTCAVSGHSISHDHAWSWVRQPPGEGLEWIGFISYSGITNYNPSLQGRVTISRDNSKNTLYLQMNSLRAEDTAVYYCARSLARTTAMDYWGEGTLVTVSSASTKGPSVFPLAPSSKSTSGGTAALGCLVKDYFPEPVTVSWNSGALTSGVHTFPAVLQSSGLYSLSSVVTVPSSSLGTQTYICNVNHKPSNTKVDKKVEPKSCDKTHTCPPCPAPELRGGPKVFLFPPKPKDTLYIARTPEVTCVVVDVSHEDPEVKFNWYVDGVEVHNAKTKPREEQYNSTYRVVSVLTVLHQDWLNGKEYKCKVSNKALPAPIEKTISKAKGQPREPQVYTLPPSRDELTKNQVSLTCLVKGFYPSDIAVEWESNGQPENNYKTTPPVLDSDGSFFLYSKLTVDKSRWQQGNVFSCSVMHEALDYHVTKKDLSLSP light: not shown	–
118 nM	–	F1270 (antibody, name in EU numbering, copies: 2 + 2) heavy: QVQLQESGPGLVKPSETLSLTCAVSGHSISHDHAWSWVRQPPGEGLEWIGFISYSGITNYNPSLQGRVTISRDNSKNTLYLQMNSLRAEDTAVYYCARSLARTTAMDYWGEGTLVTVSSASTKGPSVFPLAPSSKSTSGGTAALGCLVKDYFPEPVTVSWNSGALTSGVHTFPAVLQSSGLYSLSSVVTVPSSSLGTQTYICNVNHKPSNTKVDKKVEPKSCDKTHTCPPCPAPELRGGPKVFLFPPKPKDTLYIARTPEVTCVVVDVSHEDPEVKFNWYVDGVEVHNAKTKPREEQYNSTYRVVSVLTVLHQDWLNGKEYKCKVSNKALPAPIEKTISKAKGQPREPQVYTLPPSRDELTKNQVSLTCLVKGFYPSDIAVEWESNGQPENNYKTTPPVLDSDGSFFLYSKLTVDKSRWQQGNVFSCSVMHEALHYHVTKKDLSLSP light: not shown	–
169 nM	–	F1269 (antibody, name in EU numbering, copies: 2 + 2) heavy: QVQLQESGPGLVKPSETLSLTCAVSGHSISHDHAWSWVRQPPGEGLEWIGFISYSGITNYNPSLQGRVTISRDNSKNTLYLQMNSLRAEDTAVYYCARSLARTTAMDYWGEGTLVTVSSASTKGPSVFPLAPSSKSTSGGTAALGCLVKDYFPEPVTVSWNSGALTSGVHTFPAVLQSSGLYSLSSVVTVPSSSLGTQTYICNVNHKPSNTKVDKKVEPKSCDKTHTCPPCPAPELRGGPKVFLFPPKPKDTLYISRTPEVTCVVVDVSHEDPEVKFNWYVDGVEVHNAKTKPREEQYNSTYRVVSVLTVLHQDWLNGKEYKCKVSNKALPAPIEKTISKAKGQPREPQVYTLPPSRDELTKNQVSLTCLVKGFYPSDIAVEWESNGQPENNYKTTPPVLDSDGSFFLYSKLTVDKSRWQQGNVFSCSVMHEALDYHVTKKDLSLSP light: not shown	–
–	30000 nM	IL6R-BP146/IL6R-L (antibody, human IgG1, positions are EU numbering, not positions on the entry) heavy: QVQLQESGPGLVKPSETLSLTCAVSGHSISHDHAWSWVRQPPGEGLEWIGFISYSGITNYNPSLQGRVTISRDNSKNTLYLQMNSLRAEDTAVYYCARSLARTTAMDYWGEGTLVTVSSASTKGPSVFPLAPSSKSTSGGTAALGCLVKDYFPEPVTVSWNSGALTSGVHTFPAVLQSSGLYSLSSVVTVPSSSLGTQTYICNVNHKPSNTKVDKKVEPKSCDKTHTCPPCPAPEYLGDDSVFLFPPKPKDTLMISRTPEVTCVVVDVSHEDPEVKFNWYVDGVEVHNAKTKPREEQYNSTYRVVSVLTVLHQDWLNGKEYKCKVSNAALPAPIEKTISKAKGQPREPQVYTLPPSRDELTKNQVSLTCLVKGFYPSDIAVEWESNGQPENNYKTTPPVLDSDGSFFLYSKLTVDKSRWQQGNVFSCSVMHEALHNHYTQESLSLSP light: DIQMTQSPSSLSASVGDRVTITCRASQDISSYLNWYQQKPGKAPKLLIYYTSRLHSGVPSRFSGSGSGTDFTFTISSLQPEDIATYYCQQGNTLPYTFGQGTKVEIK	KD (IIaR)/KD (IIb) (FcγRIIb [1]): 9.3; Kd (FcγRIIa type H): 1600 nM; KD (IIaH)/KD (IIb) (FcγRIIb [2]): 50
–	40000 nM	IL6R-BP152/IL6R-L (antibody, human IgG1, EU numbering) heavy: QVQLQESGPGLVKPSETLSLTCAVSGHSISHDHAWSWVRQPPGEGLEWIGFISYSGITNYNPSLQGRVTISRDNSKNTLYLQMNSLRAEDTAVYYCARSLARTTAMDYWGEGTLVTVSSASTKGPSVFPLAPSSKSTSGGTAALGCLVKDYFPEPVTVSWNSGALTSGVHTFPAVLQSSGLYSLSSVVTVPSSSLGTQTYICNVNHKPSNTKVDKKVEPKSCDKTHTCPPCPAPDYLGDDSVFLFPPKPKDTLMISRTPEVTCVVVDVSHEDPEVKFNWYVDGVEVHNAKTKPREEQDNSTYRVVSVLTVLHQDWLNGKEYKCKVSNAALPRPIEKTISKAKGQPREPQVYTLPPSRDELTKNQVSLTCLVKGFYPSDIAVEWESNGQPENNYKTTPPVLDSDGSFFLYSKLTVDKSRWQQGNVFSCSVMHEALHNHYTQESLSLSP light: DIQMTQSPSSLSASVGDRVTITCRASQDISSYLNWYQQKPGKAPKLLIYYTSRLHSGVPSRFSGSGSGTDFTFTISSLQPEDIATYYCQQGNTLPYTFGQGTKVEIK	KD (IIaR)/KD (IIb) (FcγRIIb [1]): 19.5; KD (IIaH)/KD (IIb) (FcγRIIb [2]): 136
–	35000 nM	IL6R-BP147/IL6R-L (antibody, human IgG1, EU numbering) heavy: QVQLQESGPGLVKPSETLSLTCAVSGHSISHDHAWSWVRQPPGEGLEWIGFISYSGITNYNPSLQGRVTISRDNSKNTLYLQMNSLRAEDTAVYYCARSLARTTAMDYWGEGTLVTVSSASTKGPSVFPLAPSSKSTSGGTAALGCLVKDYFPEPVTVSWNSGALTSGVHTFPAVLQSSGLYSLSSVVTVPSSSLGTQTYICNVNHKPSNTKVDKKVEPKSCDKTHTCPPCPAPEYLGDDSVFLFPPKPKDTLMISRTPEVTCVVVDVSHEDPEVKFNWYVDGVEVHNAKTKPREEQYNSTYRVVSVLTVLHQDWLNGKEYKCKVSNAALPKPIEKTISKAKGQPREPQVYTLPPSRDELTKNQVSLTCLVKGFYPSDIAVEWESNGQPENNYKTTPPVLDSDGSFFLYSKLTVDKSRWQQGNVFSCSVMHEALHNHYTQESLSLSP light: DIQMTQSPSSLSASVGDRVTITCRASQDISSYLNWYQQKPGKAPKLLIYYTSRLHSGVPSRFSGSGSGTDFTFTISSLQPEDIATYYCQQGNTLPYTFGQGTKVEIK	–
–	–	IL6R-BP210/IL6R-L (antibody, human IgG1, Anti-human IL-6 receptor IgG1 Fc variant) heavy: QVQLQESGPGLVKPSETLSLTCAVSGHSISHDHAWSWVRQPPGEGLEWIGFISYSGITNYNPSLQGRVTISRDNSKNTLYLQMNSLRAEDTAVYYCARSLARTTAMDYWGEGTLVTVSSASTKGPSVFPLAPSSKSTSGGTAALGCLVKDYFPEPVTVSWNSGALTSGVHTFPAVLQSSGLYSLSSVVTVPSSSLGTQTYICNVNHKPSNTKVDKKVEPKSCDKTHTCPPCPAPELLGDDSVFLFPPKPKDTLMISRTPEVTCVVVDVSDEDGEVKFNWYVDGVEVHNAKTKPREEQYNSTYRVVSVLTVLHQDWLNGKEYKCKVSNKALPRPIEKTISKAKGQPREPQVYTLPPSRDELTKNQVSLTCLVKGFYPSDIAVEWESNGQPENNYKTTPPVLDSDGSFFLYSKLTVDKSRWQQGNVFSCSVMHEALHNHYTQESLSLSP light: DIQMTQSPSSLSASVGDRVTITCRASQDISSYLNWYQQKPGKAPKLLIYYTSRLHSGVPSRFSGSGSGTDFTFTISSLQPEDIATYYCQQGNTLPYTFGQGTKVEIK	Kd (FcγRIIb [3]): 39000 nM
–	68000 nM	IL6R-BP182/IL6R-L (antibody, human IgG1, EU numbering) heavy: QVQLQESGPGLVKPSETLSLTCAVSGHSISHDHAWSWVRQPPGEGLEWIGFISYSGITNYNPSLQGRVTISRDNSKNTLYLQMNSLRAEDTAVYYCARSLARTTAMDYWGEGTLVTVSSASTKGPSVFPLAPSSKSTSGGTAALGCLVKDYFPEPVTVSWNSGALTSGVHTFPAVLQSSGLYSLSSVVTVPSSSLGTQTYICNVNHKPSNTKVDKKVEPKSCDKTHTCPPCPAPDLLGGDSVFLFPPKPKDTLMISRTPEVTCVVVDVSHEDGEVKFNWYVDGVEVHNAKTKPREEQDNSTYRVVSVLTVLHQDWLNGKEYKCKVSNKALPKPIEKTISKAKGQPREPQVYTLPPSRDELTKNQVSLTCLVKGFYPSDIAVEWESNGQPENNYKTTPPVLDSDGSFFLYSKLTVDKSRWQQGNVFSCSVMHEALHNHYTQESLSLSP light: DIQMTQSPSSLSASVGDRVTITCRASQDISSYLNWYQQKPGKAPKLLIYYTSRLHSGVPSRFSGSGSGTDFTFTISSLQPEDIATYYCQQGNTLPYTFGQGTKVEIK	Kd (FcγRIIa type H): 2600 nM
